Starred links: 1 amine or outer side, 2 acyl side, 3 side chain; linkers in the order of their positions; H or OH if unused. Non-standard residues stand in square brackets, D forms with d. Groups on a side chain read outwards from the residue. Primed or numbered codes have the meaning given here. *: point of attachment. Tet2 = (S)-2-amino-4-(1H-tetrazol-5-yl)butanoic acid, O=C([C@H](CCc1nn[nH]n1)N[*:1])[*:2]; ButanoicP = (R)-4-(pyrrolidin-2-yl)butanoic acid, O=C(CCC[C@@H]1CCCN1[*:1])[*:2]; Ala(1H-tetrazol-5-yl) = N[C@@H](Cc1nnn[nH]1)C(=O)O; Dip = N[C@H](C(=O)O)C(c1ccccc1)c1ccccc1; His(τ-Me) = Cn1cnc(C[C@H](N)C(=O)O)c1; Stearoyl = CCCCCCCCCCCCCCCCCC(=O)*; Palmitoyl = CCCCCCCCCCCCCCCC(=O)*; Myristoyl = CCCCCCCCCCCCCC(=O)*; β3hF = N[C@H](CC(=O)O)Cc1ccccc1; hLeu = CC(C)CC[C@H](N)C(=O)O; Isovaleryl = CC(C)CC(=O)*; hIle′ = not defined here; AEEA = NCCOCCOCC(=O)O; Ahx = NCCCCCC(=O)O; βAla = NCCC(=O)O

Data on 24 molecules can be found in patent US20240066131A1 (Protagonist Therapeutics, Inc., priority 2020, published 2024).

T1: human ferroportin (SLC40A1) fused in frame with GFP, stably expressed in HEK293 cells (human, UniProt Q9NP59 1-571)
T1 sequence (looked up): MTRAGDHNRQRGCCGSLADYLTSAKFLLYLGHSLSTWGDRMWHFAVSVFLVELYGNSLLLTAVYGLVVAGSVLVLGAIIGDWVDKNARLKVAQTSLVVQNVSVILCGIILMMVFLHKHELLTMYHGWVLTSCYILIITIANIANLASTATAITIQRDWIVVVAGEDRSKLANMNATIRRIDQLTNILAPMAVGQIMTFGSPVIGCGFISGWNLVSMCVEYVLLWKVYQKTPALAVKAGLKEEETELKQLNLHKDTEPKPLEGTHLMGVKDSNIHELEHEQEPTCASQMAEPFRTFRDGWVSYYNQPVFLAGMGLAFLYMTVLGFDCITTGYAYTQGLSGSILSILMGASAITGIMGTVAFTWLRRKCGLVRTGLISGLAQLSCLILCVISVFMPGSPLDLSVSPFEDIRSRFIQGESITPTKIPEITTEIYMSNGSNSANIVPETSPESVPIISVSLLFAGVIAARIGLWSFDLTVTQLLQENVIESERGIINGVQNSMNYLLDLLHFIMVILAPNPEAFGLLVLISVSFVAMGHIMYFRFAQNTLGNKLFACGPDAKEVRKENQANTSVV

B1: Isovaleric Acid-[Tet1]-T-H-[Dpa]-P-I-I-[Lys(Ahx_Palm)]-[bhPhe]-NH2 (peptide)
peptide: Isovaleryl-[Ala(1H-tetrazol-5-yl)]TH[Dip]PIIK([Ahx-Palmitoyl])[β3hF]-NH2
SMILES: CCCCCCCCCCCCCCCC(=O)NCCCCCC(=O)NCCCC[C@H](NC(=O)[C@@H](NC(=O)[C@@H](NC(=O)[C@@H]1CCCN1C(=O)[C@@H](NC(=O)[C@H](Cc1c[nH]cn1)NC(=O)[C@@H](NC(=O)[C@H](Cc1nnn[nH]1)NC(=O)CC(C)C)[C@@H](C)O)C(c1ccccc1)c1ccccc1)[C@@H](C)CC)[C@@H](C)CC)C(=O)N[C@H](CC(N)=O)Cc1ccccc1
B2: Isovaleric Acid-[Tet2]-T-H-[Dpa]-P-I-I-[Lys(Ahx_Palm)]-[bhPhe]-NH2 (peptide)
peptide: Isovaleryl-[Tet2]TH[Dip]PIIK([Ahx-Palmitoyl])[β3hF]-NH2
SMILES: CCCCCCCCCCCCCCCC(=O)NCCCCCC(=O)NCCCC[C@H](NC(=O)[C@@H](NC(=O)[C@@H](NC(=O)[C@@H]1CCCN1C(=O)[C@@H](NC(=O)[C@H](Cc1c[nH]cn1)NC(=O)[C@@H](NC(=O)[C@H](CCc1nn[nH]n1)NC(=O)CC(C)C)[C@@H](C)O)C(c1ccccc1)c1ccccc1)[C@@H](C)CC)[C@@H](C)CC)C(=O)N[C@H](CC(N)=O)Cc1ccccc1
B3: Isovaleric Acid-E-T-H-[Dpa]-P-[hLeu]-I-[Lys(Ahx_Palm)]-[bhPhe]-NH2 (peptide)
peptide: Isovaleryl-ETH[Dip]P[hLeu]IK([Ahx-Palmitoyl])[β3hF]-NH2
SMILES: CCCCCCCCCCCCCCCC(=O)NCCCCCC(=O)NCCCC[C@H](NC(=O)[C@@H](NC(=O)[C@H](CCC(C)C)NC(=O)[C@@H]1CCCN1C(=O)[C@@H](NC(=O)[C@H](Cc1c[nH]cn1)NC(=O)[C@@H](NC(=O)[C@H](CCC(=O)O)NC(=O)CC(C)C)[C@@H](C)O)C(c1ccccc1)c1ccccc1)[C@@H](C)CC)C(=O)N[C@H](CC(N)=O)Cc1ccccc1
B4: Isovaleric Acid-E-T-H-[Dpa]-P-A-I-[Lys(1PEG2_1PEG2_Ahx_Palm)]-[bhPhe]-NH2 (peptide)
peptide: Isovaleryl-ETH[Dip]PAIK([AEEA-AEEA-Ahx-Palmitoyl])[β3hF]-NH2
SMILES: CCCCCCCCCCCCCCCC(=O)NCCCCCC(=O)NCCOCCOCC(=O)NCCOCCOCC(=O)NCCCC[C@H](NC(=O)[C@@H](NC(=O)[C@H](C)NC(=O)[C@@H]1CCCN1C(=O)[C@@H](NC(=O)[C@H](Cc1c[nH]cn1)NC(=O)[C@@H](NC(=O)[C@H](CCC(=O)O)NC(=O)CC(C)C)[C@@H](C)O)C(c1ccccc1)c1ccccc1)[C@@H](C)CC)C(=O)N[C@H](CC(N)=O)Cc1ccccc1
B5: Isovaleric Acid-E-T-H-[Dpa]-P-V-I-[Lys(Ahx_Palm)]-[bhPhe]-NH2 (peptide)
peptide: Isovaleryl-ETH[Dip]PVIK([Ahx-Palmitoyl])[β3hF]-NH2
SMILES: CCCCCCCCCCCCCCCC(=O)NCCCCCC(=O)NCCCC[C@H](NC(=O)[C@@H](NC(=O)[C@@H](NC(=O)[C@@H]1CCCN1C(=O)[C@@H](NC(=O)[C@H](Cc1c[nH]cn1)NC(=O)[C@@H](NC(=O)[C@H](CCC(=O)O)NC(=O)CC(C)C)[C@@H](C)O)C(c1ccccc1)c1ccccc1)C(C)C)[C@@H](C)CC)C(=O)N[C@H](CC(N)=O)Cc1ccccc1
B6: Isovaleric Acid-E-T-H-[Dpa]-P-A-[Lys(Ahx_Palm)]-NH2 (peptide)
peptide: Isovaleryl-ETH[Dip]PAK([Ahx-Palmitoyl])-NH2
SMILES: CCCCCCCCCCCCCCCC(=O)NCCCCCC(=O)NCCCC[C@H](NC(=O)[C@H](C)NC(=O)[C@@H]1CCCN1C(=O)[C@@H](NC(=O)[C@H](Cc1c[nH]cn1)NC(=O)[C@@H](NC(=O)[C@H](CCC(=O)O)NC(=O)CC(C)C)[C@@H](C)O)C(c1ccccc1)c1ccccc1)C(N)=O
B7: Isovaleric Acid-[Tet1]-T-[His_1Me]-[Dpa]-[ButanoicP]-[Lys(Ahx_Palm)]-NH2 (peptide)
peptide: Isovaleryl-[Ala(1H-tetrazol-5-yl)]T[His(τ-Me)][Dip][ButanoicP]K([Ahx-Palmitoyl])-NH2
SMILES: CCCCCCCCCCCCCCCC(=O)NCCCCCC(=O)NCCCC[C@H](NC(=O)CCC[C@@H]1CCCN1C(=O)[C@@H](NC(=O)[C@H](Cc1cn(C)cn1)NC(=O)[C@@H](NC(=O)[C@H](Cc1nnn[nH]1)NC(=O)CC(C)C)[C@@H](C)O)C(c1ccccc1)c1ccccc1)C(N)=O
B8: Isovaleric Acid-[Tet2]-T-[His_1Me]-[Dpa]-P-I-I-[Lys(Ahx_Palm)]-[bhPhe]-NH2 (peptide)
peptide: Isovaleryl-[Tet2]T[His(τ-Me)][Dip]PIIK([Ahx-Palmitoyl])[β3hF]-NH2
SMILES: CCCCCCCCCCCCCCCC(=O)NCCCCCC(=O)NCCCC[C@H](NC(=O)[C@@H](NC(=O)[C@@H](NC(=O)[C@@H]1CCCN1C(=O)[C@@H](NC(=O)[C@H](Cc1cn(C)cn1)NC(=O)[C@@H](NC(=O)[C@H](CCc1nn[nH]n1)NC(=O)CC(C)C)[C@@H](C)O)C(c1ccccc1)c1ccccc1)[C@@H](C)CC)[C@@H](C)CC)C(=O)N[C@H](CC(N)=O)Cc1ccccc1
B9: Isovaleric Acid-[Tet1]-T-[His_1Me]-[Dpa]-P-A-I-[Lys(Ahx_Palm)]-NH2 (peptide)
peptide: Isovaleryl-[Ala(1H-tetrazol-5-yl)]T[His(τ-Me)][Dip]PAIK([Ahx-Palmitoyl])-NH2
SMILES: CCCCCCCCCCCCCCCC(=O)NCCCCCC(=O)NCCCC[C@H](NC(=O)[C@@H](NC(=O)[C@H](C)NC(=O)[C@@H]1CCCN1C(=O)[C@@H](NC(=O)[C@H](Cc1cn(C)cn1)NC(=O)[C@@H](NC(=O)[C@H](Cc1nnn[nH]1)NC(=O)CC(C)C)[C@@H](C)O)C(c1ccccc1)c1ccccc1)[C@@H](C)CC)C(N)=O
B10: Isovaleric Acid-[Tet1]-T-H-[Dpa]-P-A-I-[Lys(Ahx_Palm)]-NH2 (peptide)
peptide: Isovaleryl-[Ala(1H-tetrazol-5-yl)]TH[Dip]PAIK([Ahx-Palmitoyl])-NH2
SMILES: CCCCCCCCCCCCCCCC(=O)NCCCCCC(=O)NCCCC[C@H](NC(=O)[C@@H](NC(=O)[C@H](C)NC(=O)[C@@H]1CCCN1C(=O)[C@@H](NC(=O)[C@H](Cc1c[nH]cn1)NC(=O)[C@@H](NC(=O)[C@H](Cc1nnn[nH]1)NC(=O)CC(C)C)[C@@H](C)O)C(c1ccccc1)c1ccccc1)[C@@H](C)CC)C(N)=O

In the assay the target is T1, human ferroportin (SLC40A1) fused in …. The experiment in a line: cell-based or functional assay.
As for Isovaleryl-ETH[Dip]PAIK([Ahx-Stearoyl])[β3hF]-NH2 [Isovaleric Acid-E-T-H-[Dpa]-P-A-I-[Lys(Ahx_C18)]-[bhPhe]-NH2], the “FPN EC50” value is 82.2 nM. The value for B1 was 86.8 nM. To Isovaleryl-ETH[Dip]P[hIle′]IK([Ahx-Palmitoyl])[β3hF]-NH2 [Isovaleric Acid-E-T-H-[Dpa]-P-[hIle]-I-[Lys(Ahx_Palm)]-[bhPhe]-NH2] belongs 228 nM; to B2, 376 nM; to Isovaleryl-ETH[Dip]P[tBuAlanine]IK([Ahx-Palmitoyl])[β3hF]-NH2 [Isovaleric Acid-E-T-H-[Dpa]-P-[t-BuAlanine]-I-[Lys(Ahx_Palm)]-[bhPhe]-NH2], 34.2 nM.

For Isovaleryl-ETH[Dip]PAIK([βAla-Palmitoyl])[β3hF]-NH2 [Isovaleric Acid-E-T-H-[Dpa]-P-A-I-[Lys(bAla_Palm)]-[bhPhe]-NH2], the “FPN EC50” value is 62.9 nM. To B3 belongs 150 nM. Regarding Isovaleryl-ETH[Dip]PAIK([Ahx-Myristoyl])[β3hF]-NH2 [Isovaleric Acid-E-T-H-[Dpa]-P-A-I-[Lys(Ahx_C14)]-[bhPhe]-NH2], the “FPN EC50” value came to 92.4 nM. The value for B4 was 63.5 nM.

As for Isovaleryl-ETH[Dip]PIIK([Ahx-Palmitoyl])[β3hF]-NH2 [Isovaleric Acid-E-T-H-[Dpa]-P-I-I-[Lys(Ahx_Palm)]-[bhPhe]-NH2], the “FPN EC50” value is 232 nM.

Take Isovaleryl-ETH[Dip]PAIK([Ahx-C22])[β3hF]-NH2 [Isovaleric Acid-E-T-H-[Dpa]-P-A-I-[Lys(Ahx_C22)]-[bhPhe]-NH2]: the “FPN EC50” value stood at 1330 nM.

Regarding Isovaleryl-ETH[Dip]PLIK([Ahx-Palmitoyl])[β3hF]-NH2 [Isovaleric Acid-E-T-H-[Dpa]-P-L-I-[Lys(Ahx_Palm)]-[bhPhe]-NH2], the “FPN EC50” value stood at 372 nM.

Consider Isovaleryl-ET[His(τ-Me)][Dip]PAIK([Ahx-Palmitoyl])-NH2 [Isovaleric Acid-E-T-[His_1Me]-[Dpa]-P-A-I-[Lys(Ahx_Palm)]-NH2], for which the “FPN EC50” value was found to be 73 nM. Regarding B5, the “FPN EC50” value is 199 nM. Regarding Isovaleryl-ETH[Dip]P[DiethylGly]IK([Ahx-Palmitoyl])[β3hF]-NH2 [Isovaleric Acid-E-T-H-[Dpa]-P-[DiethylGly]-I-[Lys(Ahx_Palm)]-[bhPhe]-NH2], the “FPN EC50” value amounted to 69.7 nM.

In the case of B6, the “FPN EC50” value is 193 nM. Turning to B7, the “FPN EC50” value was determined as 214 nM. The value for Isovaleryl-ETH[Dip]PAIK([AEEA-AEEA-Palmitoyl])[β3hF]-NH2 [Isovaleric Acid-E-T-H-[Dpa]-P-A-I-[Lys(1PEG2_1PEG2_Palm)]-[bhPhe]-NH2] was 73.7 nM.

In the case of Isovaleryl-ETH[Dip]PAIK([Ahx-C10])[β3hF]-NH2 [Isovaleric Acid-E-T-H-[Dpa]-P-A-I-[Lys(Ahx_C10)]-[bhPhe]-NH2], the “FPN EC50” value amounted to 123 nM. The value for B8 was 101 nM; that for B9 was 30.2 nM. To B10 belongs 44.1 nM; to Isovaleryl-ET[His(τ-Me)][Dip]PIIK([Ahx-Palmitoyl])[β3hF]-NH2 [Isovaleric Acid-E-T-[His_1Me]-[Dpa]-P-I-I-[Lys(Ahx_Palm)]-[bhPhe]-NH2], 59.7 nM. For Isovaleryl-[Ala(1H-tetrazol-5-yl)]T[His(τ-Me)][Dip]PIIK([Ahx-Palmitoyl])[β3hF]-NH2 [Isovaleric Acid-[Tet1]-T-[His_1Me]-[Dpa]-P-I-I-[Lys(Ahx_Palm)]-[bhPhe]-NH2], the “FPN EC50” value worked out at 33.4 nM.
